Data reported in paper PMC8406365 (Acta Biochimica et Biophysica Sinica, 2021).

Target: SENP3 (endogenous, LO2 hepatocytes) (human (endogenous in LO2), UniProt Q9H4L4 1-574)
Experiment: FRET or BRET

SENP3 (endogenous, LO2 hepatocytes), sequence (Q9H4L4 whole entry): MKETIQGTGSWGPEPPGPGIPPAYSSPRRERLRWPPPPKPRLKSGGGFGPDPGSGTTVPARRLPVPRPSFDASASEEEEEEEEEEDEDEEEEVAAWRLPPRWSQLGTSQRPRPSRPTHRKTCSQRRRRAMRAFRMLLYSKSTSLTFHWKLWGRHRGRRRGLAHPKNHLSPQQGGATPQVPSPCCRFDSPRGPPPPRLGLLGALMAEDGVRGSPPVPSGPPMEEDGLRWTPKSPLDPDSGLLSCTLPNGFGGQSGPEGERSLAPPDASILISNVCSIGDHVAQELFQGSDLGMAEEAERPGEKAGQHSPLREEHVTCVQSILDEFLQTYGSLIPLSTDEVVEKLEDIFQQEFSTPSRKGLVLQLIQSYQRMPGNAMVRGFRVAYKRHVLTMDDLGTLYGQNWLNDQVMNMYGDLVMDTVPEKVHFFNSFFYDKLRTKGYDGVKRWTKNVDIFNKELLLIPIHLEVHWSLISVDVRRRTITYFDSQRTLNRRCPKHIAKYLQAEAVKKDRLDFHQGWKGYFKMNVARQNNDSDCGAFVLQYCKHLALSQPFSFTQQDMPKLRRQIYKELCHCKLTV

FRET efficiency: ~25%
B1: ATP synthase subunit (ATP5F1A) (natural protein, human (endogenous in LO2), UniProt P25705 44-553, looked up)
chain: QKTGTAEMSSILEERILGADTSVDLEETGRVLSIGDGIARVHGLRNVQAEEMVEFSSGLKGMSLNLEPDNVGVVVFGNDKLIKEGDIVKRTGAIVDVPVGEELLGRVVDALGNAIDGKGPIGSKTRRRVGLKAPGIIPRISVREPMQTGIKAVDSLVPIGRGQRELIIGDRQTGKTSIAIDTIINQKRFNDGSDEKKKLYCIYVAIGQKRSTVAQLVKRLTDADAMKYTIVVSATASDAAPLQYLAPYSGCSMGEYFRDNGKHALIIYDDLSKQAVAYRQMSLLLRRPPGREAYPGDVFYLHSRLLERAAKMNDAFGGGSLTALPVIETQAGDVSAYIPTNVISITDGQIFLETELFYKGIRPAINVGLSVSRVGSAAQTRAMKQVAGTMKLELAQYREVAAFAQFGSDLDAATQQLLSRGVRLTELLKQGQYSPMAIEEQVAVIYAGVRGYLDKLEPSKITKFENAFLSHVVSQHQALLGTIRADGKISEQSDAKLKEIVTNFLAGFEA
